Assay: label from the status in PepcDB records
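Note: failed if final PepcDB status was selected cloned or expressed and not failed if soluble or beyond.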

MIEAYKDYWKRYIDFKGKSNRLEFWTPVLVHIISIFIIALIGAFSFIVGIFIVAAVLSALIGLFGLANIVPMAAVTLRRFYDAGRKRTTAIILIILSVVVNIVFDIIQVDSIAVFLNIVSIICTIILVIETLLPSKNVEDAQLKWL
protein production: failed

MIEDKFMRVLLMFDVPTKSKKEQKLASKFRNNLIKLGYFMLQFSVYMRICKGLSSAKSSIENVKKILPPYGNVRALIITEKQFDKMELLLGGIVFNEKVNNETNLTLFDIDSHGEFKYKNSNNEEIQINKKQEKYHQQNLFEFLEHHHHHH
protein production: failed

MIEDTLHAIAQQDYPAESYEVLLINDGSKDNTLEIAENLAKIYPCIKIVNVPKGMGGKGKSRTLNNGLPHAKGELIVVYDADSTPEPDCVRLLAQTLLADKKLVAVNGKVRTRNWQDSILTRFIAIEFIFFQWIFQGGRWQRFELSTLMGTNYVIWRDALETLGGFDEKSLVDDTEMSFRIFIGQKRIKWVPYAIGWQQDPPSLSVFVKQRSRWTQGNFYVTRKYLPVALRTPFPIGIEILNNIMCYILFVPALFWSHITLTLGLLDIAGISVPGPFTLLWGLSFCLYVAQMWFTLSLEKVKPELYFYSVLSYVSYSQIFLFIVFKAAFDMLKNKIQGNSLQWYKTERSKEKK
protein production: failed

MIEEQGRVVATEPGAVWVETVRRSTCSSCSANAGCGQGLMQRLGVGAGRARVRALSDLSLRVGDAVVLGIHEDLLLRASVLFYLFPLLGFFVAALLATRAGLVEPLIIVSGLAGLLAAWLLVRRHARRHADDPASQPVVLRALISGPSDSA
protein production: failed

MIEKVYCQEVKPELDGKKVRLAGWVYTNMRVGKKIFLWIRDSTGIVQAVVAKNVVGEETFEKAKKLGRESSVIVEGIVKADERAPGGAEVHVEKLEVIQAVSEFPIPENPEQASPELLLDYRHLHIRTPKASAIMKVKETLIMAAREWLLKDGWHEVFPPILVTGAVEGGATLFKLKYFDKYAYLSQSAQLYLEAAIFGLEKVWSLTPSFRAEKSRTRRHLTEFWHLELEAAWMDLWDIMKVEEELVSYMVQRTLELRKKEIEMFRDDLTTLKNTEPPFPRISYDEAIDILQSKGVNVEWGDDLGADEERVLTEEFDRPFFVYGYPKHIKAFYMKEDPNDPRKVLASDMLAPEGYGEIIGGSQREDDYDKLLNRILEEGMDPKDYEWYLDLRRYGSVPHSGFGLGVERLVAWVLKLDHIRWAALFPRTPARLYP
protein production: not failed

MIENTIYKEFIDKISELSDGIYPIITDLDNDLSYVPDKTADFFGFEAGEHTCFFEQLSSCVNDVDLPEYKREIRYRLNGEKPDDIFYVRMGKHTKEYMMGFYSDIFTGDDGHRYHVLVLRNENTLPDIDPYTYLYGQSKFERDINGYIMENRSVAIIEVEIGHIDEFNILYGSNFNTAIQRELALKFIYMMDGSTATYYMNNCKFVFVVKEADRALAESFYQKIADTIKSMYFFKCFKFEFDIYAACLILKDYDGDTSTVISKVEYTLDRAKELHSSDLLFFNDMVRFNGSSHIDIMKIIHQSVINSCDGFFVEFQPIVKACNGEIMGAEALVRWKKEPFGTVPPGLFIDWLEDTPAMYELGNYIMRTAISAASEFAKIKPGFFINVNASSEQLEKENFVKDTLAILKEYDFPPSQLWIEITERCRDLPISMIKKTVTAFREAGIHITMDDYGTGSSSSQMMLELPVEGIKIDMFFVKDILEEKKKQALVIGMINFANAADLKICIEGIENDNLESYLRQFDVTWFQGYHYSRSICQDELMKLLIKP
protein production: failed

MIESRRFVSDVMITFIASLVNIIISFPISVVIGRYLGVEDLGAYRLVFSIYGLSLLFANAGIPAAVIKQISEIKEDPKSTVKVISSSFFTSSLLGIFFLIFYLLFAETLSNIFGTPELADLIRIISLSFPFSVTGSTMLATLNGFRDMKKHATAILIQSVLMLFFTILSITFGYGVNGAVGASVISSIGYCVYLLRYLGKYIKIINFSDAVHYSKSMITFGLQTVVANAVNLINFQADTIMVGYFLTKTDVGFYSVAVLLAKLLWLIPDSIQKITYPLISEHYNNSGTEYINRAIETIMKYTMCISIVIGSGMIFYGEGIITSIYGASFIESVNPYYILIVGTMIFSIVKCVNSLFASIGRVDLFAKIPTYSAAVNILLNLVLIPIYHINGAAIATSTSLLIYVLVMIYYMKKLVNIHINVIWYSKAIFLFAMLIIINYILSLFTPFNSSGILTVSLGCLLLWIYILEPSDRVFFLSLVTKLKSLSLN
protein production: failed

MIETTKGGSGSYPIKTIVVLVQENRSFDHTLGWFKELNREIDGVTKSDPKSNTVSSSDTNSLRVVFGDQSQYVNPDPGHSIQDIYEQVFGKPWDSGKPDPNPGHPNMSGFAQNAERNKKGMSSAVMNGFKPNALPVYKELVQNFAICDRWFASVPASTQPNRLYVHSATSHGATSNDKKLLLEGFPQKTIFESLDEAGFSFGIYYQFPPSTLFYRNLRKLKYLTHFHQYGIQFKKDCKEGKLPNYVVVEQRWFDLLSTPANDDHPSHDVSEGQKLVKEVYEALRSSPQWNEILFIITYDEHGGFYDHVPTPVDGVPNPDGILGPPPYNFEFNRLGVRVPTFFISPWIEPGTVIHGPNGPYPRSQYEHSSIPATVKTIFKLKDFLSKRDSWAGTFESVITRDSPRQDCPETLSTPIKLRGTMAKENAQLSEFQEDLVIMAAGLKGDYKNEELIHKLCKETCVADASKYVTNAFEKFLEESRKARDRGCDENDIVYCVDDDDDHVVIPPQSHSEASNAAAQPKTQTSFFNKLFSCFIRHD
protein production: failed

MIFAFVFDRDYYSLGLVLLALFSAQSPYGGLSLEIYLKSCRIQQNYTRLNTMKLRLPHAPYVANKIALDLVSSGYIELGSNMEKISQIAKHFLEENIKKEAALEEKVRLLLEANLEEIEFLRVDERQFFWMAKKKLAEEEGFILAKDDRYSHLSHQILDELIKEEVIDFGVSDTIIKNVIFKAIDGYVKIYESIEDVVIEKIENYKRKIIAGTEEYDMVFEKLYEEELKKRGFL
protein production: failed

MIFKKEPKRYTVEDTIPYLRLLKSGICQLDEKHFSKSIAFQDINYQLALDEDRDLIFNQFANFLNSFDPSISIEFSYVNQLGRNEEMKSAIQIPDKKDGFDDIRFEFREMLKSQIVKGNNGLKKSKYVTFTVEADNLEQATSKLERLEIDILSNLKSMGVRAESLNGEERLKILHDVLNPNKTFEFSYKDLKKRESTKTYIVPDEFNFTPSRYFKFGKFIGATSHFQILASELSDRMLSEFLDIDDNINISFHIRAIDQSEAIKMVKRKNTDIDKMKIEENKKAVRSGYDMDILPSDLITYGEDVKSLLKDLQTRDERMFVVSIVFMNFARTVQKLDNTIAQISSIANKHNCKLKRLDHSQEQGLVSMLPLGVNKIEIDRGLTSSSTAVFMPFTTEELFINSSNSLYYGLNALSHNLIMADRKKLKNPNGLILGTPGSGKSFSAKREMANAILVTDDDVIICDPEGEYGNLVRQFKGEVIKVSSKSKDYLNPLDINMNYGDGDAPLKDKANFIMSMLELVVGGSGLTAEEKSVIDRCLPKIYEKYFEHPTPDNMPILQDLYDMLKGQEEKVGKKLATEMEIYVSGSLNVFNHRSNVDLNKKLLCFDIKELGSQLKKIGMLVIQDQVWNKVSQNRGNKATRYYIDEFHLLLKDEQTASYSVEIWKRFRKWGGIPTGITQNVKDLLMSKEIENIFDNTDFVLMLNQASGDREILARKLKISLPQLRYVTNSNEGEGLLFFGNTIVPFLDKFPKDTILYQKMTTKPEEVRLEHHHHHH
protein production: not failed

MIFLSTVLILCCTWYFLKFLAHFSRKIHDEVRKLSVYTHFLSKWLQSAPATFTYTAIFCAFTLVQRTAPQHLINILTNHSSTSIARVSDKPISTFFDSAFWVADNGAGLLIYVVLFWTVIAWAERKYGSPRMIVITLSGHILASLTTIFLELWAINSGRAPSSLAMATDVGVSYILVAGCAAAILIMRKRMFYIGLIILGLFILLPLFVEHSIWDMGHLFAAFFGFISARLLLKLSPVRTVSSPYELLLKCRSELSNK
protein production: failed

MIFMNMIFVDREKELQTLMQRLNSPTFELVIVYGRRRIGKTSLILRAISGRNDSVYYYATERNNLERFREVAQRKFPEVRYAREDWESLLHFLRDKVVIIDEFPYLIEEDKSILSTFQRIVDENRDSRTKLILLGSSISVMEDVLSYRSPLYGRRTASLKVGELKFRDLRHLGFSVEEAVKIYGFAGGVPMYLTRVTPPFLDWVNRELKRVDSFLRDEVDFLLRYEFREIGTYKEILRAISMGKNTLAEIRDYVKVGGEISSYIKKLERIELVTREVPVTESVRSKMGRYVIRDNFTNFWFRFVYPNLSLIEEGTYEITEGEYANYLGHVFERICREYVRDRYRVKKVGRQWWKDVEIDVMGLGNVKVAGECKWSEDVNPHSVLANLERKVERLGHTVDRYVVFARSFSTKEKMEKAELVDINDLNSWFMS
protein production: failed

— a protein production outcome set (Wang et al. 2014)
